Laboratory results as given in patent publication US20230055408A1 (JIANGSU HENGRUI MEDICINE, published 2023).

T1: human CEA protein on the cell surface (human, UniProt P06731 35-685)
T1 construct: whole, on cells; also called CEACAM-5; CD66e
T1 sequence (looked up): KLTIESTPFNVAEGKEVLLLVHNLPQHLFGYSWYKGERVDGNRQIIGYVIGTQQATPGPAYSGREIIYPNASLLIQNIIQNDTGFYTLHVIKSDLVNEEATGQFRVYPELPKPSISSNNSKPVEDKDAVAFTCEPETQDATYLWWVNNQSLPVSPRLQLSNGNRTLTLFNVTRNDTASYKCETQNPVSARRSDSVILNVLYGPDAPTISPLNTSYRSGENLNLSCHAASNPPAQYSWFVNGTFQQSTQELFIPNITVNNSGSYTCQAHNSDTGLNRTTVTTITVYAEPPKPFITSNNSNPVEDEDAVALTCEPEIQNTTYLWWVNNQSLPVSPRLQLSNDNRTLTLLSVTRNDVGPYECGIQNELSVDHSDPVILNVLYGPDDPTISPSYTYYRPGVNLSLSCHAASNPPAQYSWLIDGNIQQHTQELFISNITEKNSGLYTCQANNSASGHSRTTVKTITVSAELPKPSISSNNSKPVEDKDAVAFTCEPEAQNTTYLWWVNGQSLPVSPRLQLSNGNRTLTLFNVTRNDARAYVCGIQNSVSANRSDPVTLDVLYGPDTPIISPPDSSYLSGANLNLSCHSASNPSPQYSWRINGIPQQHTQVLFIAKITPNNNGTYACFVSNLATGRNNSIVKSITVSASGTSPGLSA

T2: human CEACAM1 expressed on CHO cell surface (human, UniProt P13688 35-526)
T2 construct: also called CEACAM1-CHO
T2 sequence: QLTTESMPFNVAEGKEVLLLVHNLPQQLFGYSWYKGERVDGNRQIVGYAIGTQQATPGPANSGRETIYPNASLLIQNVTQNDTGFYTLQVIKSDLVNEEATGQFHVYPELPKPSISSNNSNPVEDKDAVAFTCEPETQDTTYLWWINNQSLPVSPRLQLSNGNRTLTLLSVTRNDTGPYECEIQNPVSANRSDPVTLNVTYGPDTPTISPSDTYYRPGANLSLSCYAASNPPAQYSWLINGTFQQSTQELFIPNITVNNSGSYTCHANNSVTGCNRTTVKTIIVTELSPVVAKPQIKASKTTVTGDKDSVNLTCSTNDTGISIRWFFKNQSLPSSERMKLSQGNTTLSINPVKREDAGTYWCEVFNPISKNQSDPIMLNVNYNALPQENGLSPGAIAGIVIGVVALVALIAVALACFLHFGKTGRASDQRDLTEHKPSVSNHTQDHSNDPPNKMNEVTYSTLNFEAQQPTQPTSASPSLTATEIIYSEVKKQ

T3: monkey CEA expressed on CHO cell surface (cynomolgus monkey)
T3 construct: also called cynoCEA-CHO; monkey CEA proteins on the cell surface
T3 chain: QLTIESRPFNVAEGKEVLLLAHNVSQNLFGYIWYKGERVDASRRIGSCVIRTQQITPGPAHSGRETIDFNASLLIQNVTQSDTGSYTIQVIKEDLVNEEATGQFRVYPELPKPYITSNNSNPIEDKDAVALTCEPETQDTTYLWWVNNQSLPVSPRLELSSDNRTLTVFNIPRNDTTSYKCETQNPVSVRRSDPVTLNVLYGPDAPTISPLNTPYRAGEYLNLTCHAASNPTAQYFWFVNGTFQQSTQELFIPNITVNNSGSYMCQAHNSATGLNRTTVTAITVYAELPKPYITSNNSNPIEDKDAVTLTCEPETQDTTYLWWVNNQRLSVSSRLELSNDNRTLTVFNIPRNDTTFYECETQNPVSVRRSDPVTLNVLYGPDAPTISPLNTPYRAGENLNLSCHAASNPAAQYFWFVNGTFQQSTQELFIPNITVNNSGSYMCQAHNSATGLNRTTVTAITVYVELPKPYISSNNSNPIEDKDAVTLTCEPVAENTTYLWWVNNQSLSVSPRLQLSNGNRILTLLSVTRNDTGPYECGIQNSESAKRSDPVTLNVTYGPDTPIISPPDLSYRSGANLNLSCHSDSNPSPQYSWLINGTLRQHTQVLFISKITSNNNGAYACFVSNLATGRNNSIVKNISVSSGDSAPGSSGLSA


Experiments:
[1] = target: T1, human CEA protein on the cell surface; assay: FACS, MKN45 cells
[2] = target: T2, human CEACAM1 expressed on CHO cell …; assay: FACS, CEACAM1-CHO cells
[3] = target: T3, monkey CEA expressed on CHO cell surface; assay: FACS, cynoCEA-CHO cells
[4] = target: T1, human CEA protein on the cell surface; assay: FACS, MKN45 cells, -/+ 5 ug/mL sCEA as competitor
Protocol: The gradient-diluted antibody and the pre-incubated mixed solution of the antibody and sCEA was added into each well. The plate was incubated at 4° C. for 60 min and centrifuged, and the supernatant was removed. The cells were washed twice with pre-cooled PBS containing FBS at final concentration 10%. 50 μL of 1:200 diluted secondary antibody Alexa Fluor@488 goat anti-human IgG (H+L) (Lifetechologies, Cat #A11013) was added. […] The cells were washed twice with 250 μL of pre-cooled PBS with FBS at final concentration 10%. 100 μL of pre-cooled PBS was added to each well to resuspend the cells. The suspension was analyzed by a flow cytometer (FACS) (BD, FACSverse) for fluorescence signal values.

EC50 [1] [nM] | binding result [2] | EC50 [3] [nM] | maximum ratio of fluorescence signals (absence of sCEA / presence of sCEA) [4] | Binder
3.94 | no binding | 0.71 | 1.02 | mAb103 (antibody, V domains shown, Murine hybridoma antibody) VH: QIQLVQSGPELKKPGETVKISCKASGYTFTTYGVIWVKQAPGKGLKWMGWINTYSGVPTYADDFKGRFAFSLETSASTAFLQINNLKNEDTATYFCARKKTLTTVTPWFAYWGQGTLVTVSA VL: DLVVTQSSSASFSLGASAKLTCTLSSQHSTYTIEWYQQQPLKPPKYVMELKKDGSHSTGDGIPDRFSGSSSGADRYLTISNIQPEDEAIYICGVGNTIKEQFVYVFGGGTKVTVL
3.62 | no binding | 2.88 | 1.43 | mAb63 (antibody, V domains shown, Murine hybridoma antibody) VH: EVQLQQSGPELVKPGASVKMSCKASGYTFTDFYMNWVRQSHGKSLEWIGDIFPKNGNTDYNRKFKDKATLTVDKSSNTVYMEFRSLTLEDSAIYFCARSGYGNYVFDYWGQGTIFTVSS VL: DVQMTQTPSALSASLGDRVTISCRTSQDINIYLNWYQQKPDGTVKLLIYYRSGLLSGVPSRFSGSGSGTDYSLTISNLEPEDIATYFCQQGNTLPPTFGGGTKLEIK
